Assay results from EP1073891B1, “METHOD OF PREDICTING RECEPTOR MODULATING ACTIVITY” (Duke University, priority 1998, dated 1999).

Columns and labels:
Assay type in all cases: cell-based
[1] = biological target: T1, estrogen receptor beta (ERβ-VP16) (Homo sapiens, UniProt Q92731); experiment: Mammalian two-hybrid, specificity of peptide-nuclear receptor interaction (Example 4.2); conditions: mammalian two-hybrid (Fig. 8)
T1 construct: expressed in transfected cells
Description: (§1) Peptide sequences representing each class was fused to the DNA binding domain (DBD) of the yeast transcription factor Ga14. HepG2 cells were then transiently transfected with expression vectors for ERα-VP16 and the Gal4-peptide fusion proteins. In addition, a luciferase reporter construct under the control of 5 copies of a Ga14 upstream enhancer element was also transfected along with a pCMV-β galactosidase vector to normalize for transfection efficiency. Transfection of the Ga14 DBD alone is included as control. Cells were then induced with various ligands as indicated in the figure and assayed for luciferase activity and β galactosidase activity. Normalized response was obtained by dividing the luciferase activity by the β galactosidase activity.
(§2) The specificity of peptide-nuclear receptor interaction was analyzed (Fig. 8) using the mammalian two-hybrid system. Experimental design is the same as in figure 2 except that either progesterone receptor (PRB-VP16), estrogen receptor beta (ERβ-VP16), glucocorticoid receptor (GR-VP16) or thyroid receptor beta (TRβ-VP16) was tested.

[2] = biological target: T2, thyroid receptor beta (TRβ-VP16) (Homo sapiens, UniProt P10828); experiment: as above; conditions: mammalian two-hybrid (Fig. 8)
T2 construct: expressed in transfected cells
T2 sequence (P10828 1-461): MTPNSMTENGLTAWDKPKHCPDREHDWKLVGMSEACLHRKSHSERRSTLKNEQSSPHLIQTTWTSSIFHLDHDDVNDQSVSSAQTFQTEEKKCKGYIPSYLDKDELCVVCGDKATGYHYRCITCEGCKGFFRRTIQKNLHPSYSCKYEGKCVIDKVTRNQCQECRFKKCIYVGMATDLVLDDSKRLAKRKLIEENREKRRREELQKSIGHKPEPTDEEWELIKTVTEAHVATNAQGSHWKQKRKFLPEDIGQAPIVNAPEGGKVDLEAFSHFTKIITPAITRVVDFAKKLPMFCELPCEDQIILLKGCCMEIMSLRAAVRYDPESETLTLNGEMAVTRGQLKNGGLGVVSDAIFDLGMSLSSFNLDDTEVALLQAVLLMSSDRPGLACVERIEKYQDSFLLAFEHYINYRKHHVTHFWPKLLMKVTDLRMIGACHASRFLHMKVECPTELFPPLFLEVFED
Description: as §1, §2

[3] = biological target: T3, estrogen receptor α (ERα) (Homo sapiens, UniProt P03372); experiment: LexA yeast two hybrid, β-galactosidase activity assay (Example 3)
T3 construct: The full length estrogen receptor was subcloned in frame into the EcoRI and XhoI sites of pJG4-5; expressed in transfected cells; host or cells: Saccharomyces cerevisiae EGY48
T3 sequence (P03372 1-595): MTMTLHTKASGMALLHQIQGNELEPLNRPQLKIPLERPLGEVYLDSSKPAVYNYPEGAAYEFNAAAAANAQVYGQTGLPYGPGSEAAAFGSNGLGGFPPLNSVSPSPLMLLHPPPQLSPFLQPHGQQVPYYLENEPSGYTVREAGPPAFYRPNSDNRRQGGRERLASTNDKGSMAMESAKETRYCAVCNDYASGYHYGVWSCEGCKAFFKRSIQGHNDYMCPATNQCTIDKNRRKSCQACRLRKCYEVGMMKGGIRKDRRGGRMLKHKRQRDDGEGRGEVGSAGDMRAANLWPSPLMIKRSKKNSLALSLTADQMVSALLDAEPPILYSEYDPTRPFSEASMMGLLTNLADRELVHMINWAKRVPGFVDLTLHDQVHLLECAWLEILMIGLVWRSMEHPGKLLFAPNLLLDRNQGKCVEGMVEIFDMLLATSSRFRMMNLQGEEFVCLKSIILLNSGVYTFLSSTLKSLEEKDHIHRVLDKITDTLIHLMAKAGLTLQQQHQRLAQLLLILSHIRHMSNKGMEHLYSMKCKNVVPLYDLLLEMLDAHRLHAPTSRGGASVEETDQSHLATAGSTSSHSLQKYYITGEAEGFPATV
Description: The LexA system that we employ utilizes a bacterial DNA binding protein domain, LexA, and a bacterially derived transcriptional activation sequence, B42. Proteins or peptides of interest are fused in frame with these domains and expressed using episomal plasmids in a yeast cell. The interactions between these proteins/peptides of interest are registered by monitoring the level of the reporter gene product, β-galactosidase, by an enzymatic assay. The differences in the levels of β-galactosidase activities reflect the relative strengths of the protein interactions.
The yeast strains used in this study was EGY48 (MAT a trp1 his3 ura3 leu2::61exAops-LEU2) purchased from OriGeneTechnologies for yeast two hybrid analysis. This strain contains 6 LexA operators upstream of the LEU2 gene in the yeast genome and provides high sensitivity in detecting protein-protein interactions in the LexA two hybrid system. The plasmids used in this study were pEG202 (LexA-DNA binding domain), pJG4-5 (B42-activation domain), and the plasmid containing a β-galactosidase reporter, pJK103 (OriGene Technologies). The full length estrogen receptor was subcloned in frame into the EcoRI and XhoI sites of pJG4-5 to generate an ERα-B42 activation domain fusion. ERα was subcloned in the activation domain plasmid because ERα was able to autoactivate reporters when fused to the LexA DNA binding domain.
The peptide sequences used in this study were generated from synthetic oligos filled in by T7 Sequenase (Life Science) and subcloned into the EcoRI-XhoI sites of pEG202. The synthetic oligos were: [formula] [formula] [formula] [formula] The complementary synthetic oligo used to generate double stranded DNA was 3'XhoPrim, 5'-[…]. Each 5'-oligo was annealed to the 3'-oligo by heating to 90 °C for 15 minutes and cooled slowly to 35 °C. T7 sequenase was added and the fill-in reaction allowed to proceed at 30 °C for 30 minutes. The reaction was terminated by heat denaturing the enzyme at 65 °C for 1 hour, restriction digests were performed and the resulting DNA fragments subcloned into pEG202 to generate peptide-LexA DNA binding domain fusions.
The culture was diluted to ~2x10^6 cells/ml in the same media and allowed to grow at 30 °C until the cultures reached a density of ~1x10^7 cells/ml (∼4 hours). The yeast cells were pelleted by centurifugation, washed with extraction buffer (60 mM Na2HPO4, 40 mMNaH2PO4, 10 mM KCl, 1 mM MgSO4, 1mM PMSF, 7 mM 2-mercaptoethanol) and suspended in 200 µl of extraction buffer. 100 µl of acid-washed glass beads were added and cells were lysed by vigorous agitation for 10 minutes at 4 °C. Cellular debris was pelleted by centrifugation and the supernatant transferred to a clean tube. 10 µg of total cellular protein was diluted into complete Z buffer (60 mM Na2HPO4, 40 mMNaH2PO4 , 10 mM KCl, 1 mM MgSO4, 7 mM 2-mercaptoethanol) to a volume of 100 µl in a 96-well microplate. 80 µg of o-nitrophenyl-β-D-pyranoside (ONPG) in 20 µl was added to each well to initiate color development.
10µg of each protein extract was assayed for β-galactosidase activity using o-nitrophenyl-b-D-pyranoside as substrate. Activity units are defied as 1000* Abs405/minutes/mg/protein.
Values are in beta-galactosidase units (MOD/min/mg)

T1 sequence (Q92731 whole entry, species assumed): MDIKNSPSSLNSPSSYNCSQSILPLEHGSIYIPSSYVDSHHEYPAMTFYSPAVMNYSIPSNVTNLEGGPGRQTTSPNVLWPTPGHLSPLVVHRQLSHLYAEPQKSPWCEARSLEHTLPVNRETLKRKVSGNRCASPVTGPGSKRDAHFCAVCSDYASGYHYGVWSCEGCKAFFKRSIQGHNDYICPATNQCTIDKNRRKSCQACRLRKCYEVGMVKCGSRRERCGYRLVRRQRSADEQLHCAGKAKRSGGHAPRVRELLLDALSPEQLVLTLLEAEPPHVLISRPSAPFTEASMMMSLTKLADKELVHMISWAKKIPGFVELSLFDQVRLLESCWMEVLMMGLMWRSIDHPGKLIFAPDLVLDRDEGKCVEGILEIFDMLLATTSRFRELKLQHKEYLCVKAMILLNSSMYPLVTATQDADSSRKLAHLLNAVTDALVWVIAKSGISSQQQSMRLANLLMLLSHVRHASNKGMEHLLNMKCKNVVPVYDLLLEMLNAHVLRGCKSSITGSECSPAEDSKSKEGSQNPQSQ

Peptide Interactions with ER Alpha, beta-galactosidase units, value ([3]; 4-hydroxy Tamoxifen) [MOD/min/mg] | Peptide Interactions with ER Alpha, beta-galactosidase units, value ([3]; Estradiol) [MOD/min/mg] | Peptide Interactions with ER Alpha, beta-galactosidase units, value ([3]; No Addition) [MOD/min/mg] | Peptide Interactions with ER Alpha, beta-galactosidase units, value ([3]; Tamoxifen Citrate) [MOD/min/mg] | Sequence | interaction with ERβ [1] | interaction with TRβ [2]
20100 | 30983 | 1224 | 8933 | SSLTSRDFGSWYASR [α II] | None of the receptors tested interact significantly | None of the receptors tested interact significantly
 |  |  |  | SSNHQSSRLIELLSR [α/β I] | interact with the αβ I peptide in the presence of the appropriate agonist | interact with the αβ I peptide in the presence of the appropriate agonist
4128 | 648 | 548 | 1005 | SSPGSREWFKDMLSR [α/β V] | bound ERβ only in the presence of tamoxifen | 
3194 | 605 | 381 | 600 | SSWDMHQFFWEGVSR [α/β III] | None of the receptors tested interact significantly | None of the receptors tested interact significantly
